Test results as given in the Human Domainome abundance scans (Beltran et al. 2025).
± gives the uncertainty stated by the source.

Assay: abundance fitness (aPCA) (normalised: wild type 0, dead -1); higher = more abundant; growth selection in yeast, the domain comes from the species named
Conditions: Homo sapiens

In order of falling abundance fitness:
1. NEDD4-like E3 ubiquitin-protein ligase WWP2 E451Q, O00308  0.066 ± 0.07
2. NEDD4-like E3 ubiquitin-protein ligase WWP2 E480Y, O00308  0.036 ± 0.065
3. NEDD4-like E3 ubiquitin-protein ligase WWP2 E480H, O00308  0.027 ± 0.068
4. NEDD4-like E3 ubiquitin-protein ligase WWP2 E480D, O00308  0.015 ± 0.06
5. NEDD4-like E3 ubiquitin-protein ligase WWP2 E443Y, O00308  0.006 ± 0.058
6. NEDD4-like E3 ubiquitin-protein ligase WWP2 E443C, O00308  0.004 ± 0.076
7. NEDD4-like E3 ubiquitin-protein ligase WWP2 E443N, O00308  -0.019 ± 0.08
8. NEDD4-like E3 ubiquitin-protein ligase WWP2 E480K, O00308  -0.019 ± 0.05
9. NEDD4-like E3 ubiquitin-protein ligase WWP2 E457Q, O00308  -0.022 ± 0.056
10. NEDD4-like E3 ubiquitin-protein ligase WWP2 E480G, O00308  -0.038 ± 0.033
11. NEDD4-like E3 ubiquitin-protein ligase WWP2 E480I, O00308  -0.042 ± 0.047
12. NEDD4-like E3 ubiquitin-protein ligase WWP2 D492Q, O00308  -0.043 ± 0.088
13. NEDD4-like E3 ubiquitin-protein ligase WWP2 E480Q, O00308  -0.053 ± 0.04
14. NEDD4-like E3 ubiquitin-protein ligase WWP2 E480M, O00308  -0.058 ± 0.048
15. NEDD4-like E3 ubiquitin-protein ligase WWP2 E443D, O00308  -0.06 ± 0.075
16. NEDD4-like E3 ubiquitin-protein ligase WWP2 E443K, O00308  -0.062 ± 0.073
17. NEDD4-like E3 ubiquitin-protein ligase WWP2 E480V, O00308  -0.064 ± 0.035
18. NEDD4-like E3 ubiquitin-protein ligase WWP2 E443A, O00308  -0.065 ± 0.032
19. NEDD4-like E3 ubiquitin-protein ligase WWP2 E443P, O00308  -0.065 ± 0.064
20. NEDD4-like E3 ubiquitin-protein ligase WWP2 E457D, O00308  -0.068 ± 0.062
21. NEDD4-like E3 ubiquitin-protein ligase WWP2 D492S, O00308  -0.071 ± 0.053
22. NEDD4-like E3 ubiquitin-protein ligase WWP2 E451S, O00308  -0.072 ± 0.032
23. NEDD4-like E3 ubiquitin-protein ligase WWP2 E480L, O00308  -0.072 ± 0.042
24. NEDD4-like E3 ubiquitin-protein ligase WWP2 E480R, O00308  -0.078 ± 0.038
25. NEDD4-like E3 ubiquitin-protein ligase WWP2 E480A, O00308  -0.08 ± 0.034
26. NEDD4-like E3 ubiquitin-protein ligase WWP2 E457A, O00308  -0.081 ± 0.044
27. NEDD4-like E3 ubiquitin-protein ligase WWP2 E457T, O00308  -0.081 ± 0.067
28. NEDD4-like E3 ubiquitin-protein ligase WWP2 E443H, O00308  -0.082 ± 0.044
29. NEDD4-like E3 ubiquitin-protein ligase WWP2 D492T, O00308  -0.085 ± 0.073
30. NEDD4-like E3 ubiquitin-protein ligase WWP2 E443V, O00308  -0.087 ± 0.036
31. NEDD4-like E3 ubiquitin-protein ligase WWP2 E457H, O00308  -0.089 ± 0.035
32. NEDD4-like E3 ubiquitin-protein ligase WWP2 E443G, O00308  -0.091 ± 0.038
33. NEDD4-like E3 ubiquitin-protein ligase WWP2 E443I, O00308  -0.093 ± 0.073
34. NEDD4-like E3 ubiquitin-protein ligase WWP2 E451V, O00308  -0.113 ± 0.031
35. NEDD4-like E3 ubiquitin-protein ligase WWP2 E457G, O00308  -0.116 ± 0.037
36. NEDD4-like E3 ubiquitin-protein ligase WWP2 E457K, O00308  -0.118 ± 0.056
37. NEDD4-like E3 ubiquitin-protein ligase WWP2 E480T, O00308  -0.119 ± 0.062
38. NEDD4-like E3 ubiquitin-protein ligase WWP2 E451M, O00308  -0.122 ± 0.056
39. NEDD4-like E3 ubiquitin-protein ligase WWP2 E480N, O00308  -0.126 ± 0.068
40. NEDD4-like E3 ubiquitin-protein ligase WWP2 E443M, O00308  -0.14 ± 0.055
41. NEDD4-like E3 ubiquitin-protein ligase WWP2 E480P, O00308  -0.141 ± 0.062
42. NEDD4-like E3 ubiquitin-protein ligase WWP2 D492V, O00308  -0.143 ± 0.049
43. NEDD4-like E3 ubiquitin-protein ligase WWP2 E480S, O00308  -0.15 ± 0.053
44. NEDD4-like E3 ubiquitin-protein ligase WWP2 E451A, O00308  -0.153 ± 0.056
45. NEDD4-like E3 ubiquitin-protein ligase WWP2 E457C, O00308  -0.155 ± 0.073
46. NEDD4-like E3 ubiquitin-protein ligase WWP2 E443R, O00308  -0.174 ± 0.042
47. NEDD4-like E3 ubiquitin-protein ligase WWP2 E443L, O00308  -0.183 ± 0.055
48. NEDD4-like E3 ubiquitin-protein ligase WWP2 E443W, O00308  -0.185 ± 0.039
49. NEDD4-like E3 ubiquitin-protein ligase WWP2 E457V, O00308  -0.188 ± 0.031
50. NEDD4-like E3 ubiquitin-protein ligase WWP2 D492Y, O00308  -0.189 ± 0.033
51. NEDD4-like E3 ubiquitin-protein ligase WWP2 E457N, O00308  -0.189 ± 0.068
52. NEDD4-like E3 ubiquitin-protein ligase WWP2 E457S, O00308  -0.201 ± 0.061
53. NEDD4-like E3 ubiquitin-protein ligase WWP2 E457L, O00308  -0.204 ± 0.056
54. NEDD4-like E3 ubiquitin-protein ligase WWP2 E443Q, O00308  -0.205 ± 0.076
55. NEDD4-like E3 ubiquitin-protein ligase WWP2 E457Y, O00308  -0.216 ± 0.057
56. NEDD4-like E3 ubiquitin-protein ligase WWP2 D492R, O00308  -0.223 ± 0.051
57. NEDD4-like E3 ubiquitin-protein ligase WWP2 E451C, O00308  -0.227 ± 0.063
58. NEDD4-like E3 ubiquitin-protein ligase WWP2 E451T, O00308  -0.229 ± 0.045
59. NEDD4-like E3 ubiquitin-protein ligase WWP2 E480F, O00308  -0.239 ± 0.062
60. NEDD4-like E3 ubiquitin-protein ligase WWP2 E443T, O00308  -0.248 ± 0.085
61. NEDD4-like E3 ubiquitin-protein ligase WWP2 E457R, O00308  -0.251 ± 0.061
62. NEDD4-like E3 ubiquitin-protein ligase WWP2 E457F, O00308  -0.253 ± 0.074
63. NEDD4-like E3 ubiquitin-protein ligase WWP2 E457I, O00308  -0.285 ± 0.042
64. NEDD4-like E3 ubiquitin-protein ligase WWP2 E443F, O00308  -0.287 ± 0.088
65. NEDD4-like E3 ubiquitin-protein ligase WWP2 E451G, O00308  -0.287 ± 0.037
66. NEDD4-like E3 ubiquitin-protein ligase WWP2 D492W, O00308  -0.319 ± 0.033
67. NEDD4-like E3 ubiquitin-protein ligase WWP2 E451N, O00308  -0.342 ± 0.065
68. NEDD4-like E3 ubiquitin-protein ligase WWP2 E457M, O00308  -0.349 ± 0.071
69. NEDD4-like E3 ubiquitin-protein ligase WWP2 E451Y, O00308  -0.378 ± 0.071
70. NEDD4-like E3 ubiquitin-protein ligase WWP2 E451L, O00308  -0.415 ± 0.053
71. NEDD4-like E3 ubiquitin-protein ligase WWP2 E451K, O00308  -0.472 ± 0.076
72. NEDD4-like E3 ubiquitin-protein ligase WWP2 E457P, O00308  -0.5 ± 0.075
73. NEDD4-like E3 ubiquitin-protein ligase WWP2 E451I, O00308  -0.503 ± 0.091
74. NEDD4-like E3 ubiquitin-protein ligase WWP2 E451H, O00308  -0.54 ± 0.089
75. NEDD4-like E3 ubiquitin-protein ligase WWP2 E451F, O00308  -0.572 ± 0.083
76. NEDD4-like E3 ubiquitin-protein ligase WWP2 E480C, O00308  -0.611 ± 0.043
77. NEDD4-like E3 ubiquitin-protein ligase WWP2 E457W, O00308  -0.624 ± 0.096
78. NEDD4-like E3 ubiquitin-protein ligase WWP2 F462M, O00308  -0.66 ± 0.08
79. NEDD4-like E3 ubiquitin-protein ligase WWP2 F462D, O00308  -0.675 ± 0.084
80. NEDD4-like E3 ubiquitin-protein ligase WWP2 F462K, O00308  -0.789 ± 0.16
81. NEDD4-like E3 ubiquitin-protein ligase WWP2 F462G, O00308  -0.8 ± 0.054
82. NEDD4-like E3 ubiquitin-protein ligase WWP2 F462C, O00308  -0.88 ± 0.054
83. NEDD4-like E3 ubiquitin-protein ligase WWP2 F462L, O00308  -0.9 ± 0.061
84. NEDD4-like E3 ubiquitin-protein ligase WWP2 F462N, O00308  -0.945 ± 0.082
85. NEDD4-like E3 ubiquitin-protein ligase WWP2 F462A, O00308  -1.02 ± 0.067
86. NEDD4-like E3 ubiquitin-protein ligase WWP2 F462I, O00308  -1.03 ± 0.16
87. NEDD4-like E3 ubiquitin-protein ligase WWP2 E451W, O00308  -1.18 ± 0.18
88. NEDD4-like E3 ubiquitin-protein ligase WWP2 E451P, O00308  -1.34 ± 0.3
